Data from paper PMC10842940, “Establishment of dsDNA-dsDNA interactions by the condensin complex” (Molecular cell, 2023).

Key:
[1] = target: T1, Cut3^Smc4 (fission yeast condensin SMC subunit) (S. pombe, UniProt P41004 1-1324); test: cross-linking; sulfo-SDA cross-link mass spectrometry (CLMS) of the purified five-subunit condensin complex with equimolar 124 bp linear dsDNA and 0.5 mM ADP·BeF3 (DNA-gripping state); CL buffer, 30°C 30 min, UV 365 nm on ice; 1% FDR at residue-pair level; conditions: both partners purified
T1 construct: Cut3 (Smc4), S. pombe condensin SMC subunit; cDNA cloned into an S. cerevisiae expression vector; source: S. cerevisiae (w303, pep4 deleted), co-overexpressed with the other four condensin subunits from GAL1-10 promoters; in cell extract, and purified as the complex (IgG-agarose, 3C protease elution, heparin, Superose 6)
T1 sequence (looked up): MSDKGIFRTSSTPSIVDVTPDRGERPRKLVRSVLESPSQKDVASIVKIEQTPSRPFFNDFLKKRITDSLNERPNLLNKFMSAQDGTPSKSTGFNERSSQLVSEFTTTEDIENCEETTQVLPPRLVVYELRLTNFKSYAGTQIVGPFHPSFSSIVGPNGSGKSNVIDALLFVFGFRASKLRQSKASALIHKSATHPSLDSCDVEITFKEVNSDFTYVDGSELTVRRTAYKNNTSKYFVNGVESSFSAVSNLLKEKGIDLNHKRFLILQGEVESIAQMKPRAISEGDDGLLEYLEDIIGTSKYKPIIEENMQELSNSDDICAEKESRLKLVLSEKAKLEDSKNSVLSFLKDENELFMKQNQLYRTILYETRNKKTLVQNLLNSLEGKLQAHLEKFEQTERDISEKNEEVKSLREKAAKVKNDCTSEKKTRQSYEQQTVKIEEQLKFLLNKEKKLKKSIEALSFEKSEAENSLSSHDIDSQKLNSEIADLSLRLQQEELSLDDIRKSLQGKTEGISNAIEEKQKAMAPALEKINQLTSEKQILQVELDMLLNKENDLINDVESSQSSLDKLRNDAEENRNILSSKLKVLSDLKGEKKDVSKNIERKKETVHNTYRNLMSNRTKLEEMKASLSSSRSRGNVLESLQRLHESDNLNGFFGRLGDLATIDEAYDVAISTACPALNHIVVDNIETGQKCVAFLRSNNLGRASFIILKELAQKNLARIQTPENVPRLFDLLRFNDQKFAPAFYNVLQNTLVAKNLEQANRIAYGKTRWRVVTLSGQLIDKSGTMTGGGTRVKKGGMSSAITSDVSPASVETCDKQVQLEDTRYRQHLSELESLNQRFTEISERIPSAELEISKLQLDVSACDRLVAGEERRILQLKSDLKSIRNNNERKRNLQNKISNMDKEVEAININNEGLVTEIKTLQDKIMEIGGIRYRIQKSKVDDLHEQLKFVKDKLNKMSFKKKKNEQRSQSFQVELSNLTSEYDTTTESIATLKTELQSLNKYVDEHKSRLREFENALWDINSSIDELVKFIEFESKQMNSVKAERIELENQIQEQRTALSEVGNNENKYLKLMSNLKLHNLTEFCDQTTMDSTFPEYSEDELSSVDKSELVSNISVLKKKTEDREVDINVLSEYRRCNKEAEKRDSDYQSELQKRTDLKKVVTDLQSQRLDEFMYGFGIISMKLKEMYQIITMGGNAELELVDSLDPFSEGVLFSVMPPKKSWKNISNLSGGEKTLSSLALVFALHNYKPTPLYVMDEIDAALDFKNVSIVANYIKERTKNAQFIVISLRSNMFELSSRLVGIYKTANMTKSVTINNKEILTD

[2] = target: T2, Cut14^Smc2 (fission yeast condensin SMC subunit) (S. pombe, UniProt P41003 1-1172); test: as above; conditions: both partners purified
T2 construct: Cut14 (Smc2), S. pombe condensin SMC subunit; cDNA cloned into an S. cerevisiae expression vector; The Pk tag is used for the condensin immunoprecipitation in the DNA assays; also called Cut14-3xPk; source: S. cerevisiae (w303, pep4 deleted), co-overexpressed with the other four condensin subunits from GAL1-10 promoters; in cell extract, and purified as the complex (IgG-agarose, 3C protease …)
T2 sequence (looked up): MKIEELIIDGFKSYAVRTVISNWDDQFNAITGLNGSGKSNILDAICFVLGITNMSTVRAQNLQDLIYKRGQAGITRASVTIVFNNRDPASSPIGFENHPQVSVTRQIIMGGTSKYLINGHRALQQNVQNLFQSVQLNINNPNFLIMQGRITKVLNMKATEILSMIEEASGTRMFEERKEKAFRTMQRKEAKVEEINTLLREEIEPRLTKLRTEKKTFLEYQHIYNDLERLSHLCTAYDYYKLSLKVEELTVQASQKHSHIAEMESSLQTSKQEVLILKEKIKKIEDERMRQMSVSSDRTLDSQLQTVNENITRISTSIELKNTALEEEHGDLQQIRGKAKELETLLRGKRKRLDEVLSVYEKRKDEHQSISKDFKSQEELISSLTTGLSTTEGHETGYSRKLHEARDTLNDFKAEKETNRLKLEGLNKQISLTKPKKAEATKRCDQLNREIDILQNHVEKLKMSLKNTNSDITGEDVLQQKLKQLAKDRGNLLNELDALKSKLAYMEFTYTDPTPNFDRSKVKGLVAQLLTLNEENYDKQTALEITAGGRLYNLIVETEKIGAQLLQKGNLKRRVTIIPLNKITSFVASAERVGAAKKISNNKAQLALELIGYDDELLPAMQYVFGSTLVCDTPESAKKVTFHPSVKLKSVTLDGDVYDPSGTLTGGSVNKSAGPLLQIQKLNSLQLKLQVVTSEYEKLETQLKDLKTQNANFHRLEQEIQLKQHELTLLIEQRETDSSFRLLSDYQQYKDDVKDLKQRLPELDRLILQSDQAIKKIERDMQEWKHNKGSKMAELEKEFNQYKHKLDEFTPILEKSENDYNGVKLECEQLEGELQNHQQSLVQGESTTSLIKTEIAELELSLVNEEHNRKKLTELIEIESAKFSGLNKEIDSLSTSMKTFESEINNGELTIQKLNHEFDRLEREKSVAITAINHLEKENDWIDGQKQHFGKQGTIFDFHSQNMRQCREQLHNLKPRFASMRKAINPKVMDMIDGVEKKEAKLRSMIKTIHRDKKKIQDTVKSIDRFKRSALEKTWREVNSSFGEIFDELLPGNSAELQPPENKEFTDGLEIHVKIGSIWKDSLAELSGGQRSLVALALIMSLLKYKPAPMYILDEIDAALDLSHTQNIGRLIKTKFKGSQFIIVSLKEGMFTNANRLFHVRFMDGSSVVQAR

B1: Cnd1^Ycs4 (fission yeast condensin HEAT-repeat subunit) (natural protein, S. pombe, UniProt O94679 1-1158, looked up)
chain: MSLDLLSRLKKYIHDEENSDLDSIYAECENAGLTAVVNDVIDTLLLGTSSCFDEDCLEKLFAICSHFADLSSSVRNKVYDLLTSNISSESAILEDMISANATDFTVPQTNLETTGIAFQLTVNSLSSSNQLSVIRSSTNTVKGRKKNPTTNSNWNGISHVNALLDAIITLFQKKLSRVWTTSSERDMFLSLFLKPIYTLMESEINIKNASFRSRLFNIIGLAVQFHNHTTAAETNIIQNLQYFEHLSEYAADLVHIVTVQFNSVTLAEGIIRTLCSLEFNDNDVKGPKQVALFLVRLSSLIPNLCLKQLTQLVKLLDSESYTLRCAIIEVLANVVIDQIHDEAQNEMSESVPATVQSLMDLLSERLLDISPYCRTKVLHVFIKIFDLPIKYPRKRQEIAELVIRCLQDRSSHVRRNAIKLFSKLLTTHPFSVMHNGLLTRNIWEKGLSIIEEQLNSLQPKQQEKVVDSELEVDENLLEDATMIQDDESHEGESHLENSLSEYVDSVPAEEIVKVNLTKRFYLEALQYIDIVEAGAKIISQLLFAKNKSEVIESMDFFVFCNSFGISSSKLYIKKMIHLIWVKGTSDEGNNIQNHVLSCYKTLFFEPPPNSGTNEAANYIARNLISLTYDASLAELTSLEQMLCILMKDGYFSHLVITKLWQVYSYQKKDISRTQRRGSIIVIGMLALGNTDVVMQGLDHLIQIGLGPPGLEDLVLARYTCIAIKRIGKDASGSSNINFPNSHTLCQKLCMLLLRPSFSEEWFGLEEQAIEAIYAVAKHPDELCTNIILLLTKQLFKPSNHENTTSNDDHAMDEDLDDSPEEETLKDEEEIGIRLAHLIFLVGHVAIKQLVYIEYCEAEFKRRKADAERLAVQNSNNPINGQETSEYDLITGTSEDDFSEAMTFIRERELLYGENSLLSRFAPLVVELCSNHKSHNNQSLLLAASLTLSKFMCLSNNFCMEHLPLLITILEKCDNPIIRNNLVIGLADLTVCFNHFIDEISEYLYRRLMDEESSVKKTCFMTLAFLILAGQIKVKGQLGIMARSLEDEDARISDLARMFFTDFAAKDNSVYNNFIDIFSVLSRSAEEQDEDDAKFKRIIRFLTSFIEKERHTKQLAERLAARLDRCKTQRQWDHVVYALSLLPHKADNIQKLIDDGYHE
notes: Cnd1 (Ycs4), S. pombe condensin HEAT-repeat subunit; cDNA cloned into an S. cerevisiae expression vector; source: S. cerevisiae (w303, pep4 deleted), co-overexpressed with the other four condensin subunits from GAL1-10 promoters; in cell extract, and purified as the complex (IgG-agarose, 3C protease elution, heparin, Superose 6)
binding result [1]: binds
binding result [2]: binds
